Assay [1] has as its target T1, SARS-CoV-2 receptor binding domain (RBD) (SARS-CoV-2, UniProt P0DTC2 319-591). Put plainly: BLI, mAb on anti-human Fc probe, antigen in solution. (In general: Biolayer interferometry detects binding as a change in optical thickness at a sensor tip.)
Assay [2] deals with T1, SARS-CoV-2 receptor binding domain (RBD). The assay is described as above. The source holds these as a separate data set.
The target is the same in assay [3]. Described as above. This is another data set of the same source.
Assay [4] shares this target. In words: BLI: mAb on anti-human Fc probe, dipped in the antigen.
Assay [5] shares this target. The description is as above. The source holds these as a separate data set.
For assay [6] the target is unchanged. In words: BLI, mAb on anti-human Fc probe, antigen in solution. The source holds these as a separate data set.
For assay [7] the target is unchanged. Put plainly: BLI: mAb on anti-human Fc probe, dipped in the antigen. This is another data set of the same source.
Assay [8] has the same target. Put plainly: BLI, mAb on anti-human Fc probe, antigen in solution. The source holds these as a separate data set.
The target is the same in assay [9]. Put plainly: BLI: mAb on anti-human Fc probe, dipped in the antigen. The source holds these as a separate data set.
The target is the same in assay [10]. The assay is described as above. The source holds these as a separate data set.
The target is the same in assay [11]. Put plainly: BLI, mAb on anti-human Fc probe, antigen in solution. This is another data set of the same source.
Assay [12] shares this target. Put plainly: BLI: mAb on anti-human Fc probe, dipped in the antigen. The source holds these as a separate data set.
For assay [13] the target is unchanged. In words: BLI, mAb on anti-human Fc probe, antigen in solution. This is another data set of the same source.
The target is the same in assay [14]. In words: BLI: mAb on anti-human Fc probe, dipped in the antigen. The source holds these as a separate data set.
The target is the same in assay [15]. Described as above. The source holds these as a separate data set.
Assay [16] shares this target. In words: BLI, mAb on anti-human Fc probe, antigen in solution. This is another data set of the same source.
The target is the same in assay [17]. Put plainly: BLI: mAb on anti-human Fc probe, dipped in the antigen. This is another data set of the same source.
The target is the same in assay [18]. Described as above. This is another data set of the same source.

The values below come from patent US20230212266A1 (FRED HUTCHINSON CANCER CENTER, published 2023).

B1: CV17 (antibody, V domains shown)
VH: not shown
VL: QSALTQPASVSGSPGQSITISCTGTSSDVGSYNLVSWYQQHPGKAPKLMIYEGSKRPSGVSNRFSGSKSGNTASLTISGLQAEDEADYYCCSYAGSSTYVFGTGTKVTVL
notes: expressed as IgG
On to B1, for which the binding result in assay [1] was “no binding”.

B2: CV15 (antibody, V domains shown)
VH: EVQLVESGGGLVQPGGSLRLSCAASGFTFSSYWMSWVRQAPGKGLEWVANIKQDGSEKYYVDSVKGRFTISRDNAKNSLYLQMNSLRAEDTAVYYCARDFNSYQLLWYYYYGMDVWGQGTTVTVSS
VL: QSALTQPRSVSGSPGQSVTISCTGTSSDVGGYNYVSWYQQHPGKAPKLMIYDVSKRPSGVPDRFSGSKSGNTASLTISGLQAEDEADYYCCSYAGSYTWVFGGGTKLTVL
notes: expressed as IgG
For the molecule B2, the binding result in assay [2] was “no binding”.

B3: CV22 (antibody, V domains shown)
VH: EVQLVESGGGLVKPGGSLRLSCAASGFTFSSYSMNWVRQAPGKGLEWVSSISSSSSYIYYADSVKGRFTISRDNAKNSLYLQMNSLRAEDTAVYYCARDRESYDILTGYSMEGCFDYWGQGTLVTVSS
VL: QLVLTQSPSASASLGASVKLTCTLSSGHSSYAIAWHQQQPEKGPRYLMKLNSDGSHSKGDGIPDRFSGSSSGAERYLTISSLQSEDEADYYCQTWGTGIRVFGGGTKLTVL
notes: expressed as IgG
On to B3, for which the binding result in [3] is recorded as “no binding”.

B4: CV2-62 (antibody, V domains shown)
VH: EVQLVESGGGLVQPGGSLRLSCAASGFTFSSYEMNWVRQAPGKGLEWVSYISSSGSTIYYADSVKGRFTISRDNAKNSLYLQMNSLRAEDTAVYYCARVPRPPWDDFWSGYLYYFDYWGQGTLVTVSS
VL: DIQMTQSPSSLSASVGDRVTITCRASQGISNYLAWYQQKPGKVPKLLIYAASTLQSGVPSRFSGSGSGTDFTLTISSLQPEDVATYYCQKYNSAPPGFTFGPGTKVDIK
Regarding B4, the binding result in assay [4] is reported as “no binding”.

B5: CV2-67 (antibody, V domains shown)
VH: QVQLQESGPGLVKPSETLSLTCTVSGGSISSYYWSWIRQPPGKGLEWIGYIYYSGSTNYNPSLKSRVTISVDTSKNQFSLKLSSVTAADTAVYYCAGTYYDFWSGSTNYYGMDVWGQGTTVTVSS
VL: not shown
For the molecule B5, the binding result in assay [5] is “no binding”.

B6: CV2 (antibody, V domains shown)
VH: QVQLVESGGGVVQPGRSLRLSCAASGFTFSSYAMHWVRQAPGKGLEWVAVISYDGSNKYYADSVKGRFTISRDNSKNTLYLQMNSLRAEDTAVYYCARVRGSYYLFDYWGQGTLVTVSS
VL: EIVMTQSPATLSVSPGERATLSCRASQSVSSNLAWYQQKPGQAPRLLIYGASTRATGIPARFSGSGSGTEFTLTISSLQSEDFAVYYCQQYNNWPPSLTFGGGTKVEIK
notes: expressed as IgG
In the case of B6, in assay [6], the binding result is reported as “no binding”.

B7: CV2-69 (antibody, V domains shown)
VH: EVQLLESGGGLVQPGGSLKLSCAASGFTFNSYAMTWVRQAPGKGLEWLSTISGSGGRTYYADSVKGRFAISRDNSKNTVFLQMSTLRAEDTAVYFCARDFYGLESFYPGIDSWGQGTLVTVSS
VL: SYELTQPSSVSVFPGQTARITCSGDVLEKKYARWFQQKPGQAPLLVIYKDSERPSGIPERFFGSSSGTTVTLTISGAQVEDEADYYCYSAADNNRGVFGGGTKLTVL
Take B7: the binding result in assay [7] is reported as “no binding”.

B8: CV23 (antibody, V domains shown)
VH: QVQLVQSGAEVKKPGASVKVSCKASGYTFTSYAMHWVRQAPGQRLEWMGWINAGNGNTKYSQKFQGRVTITRDTSASTAYMELSSLRSEDTAVYYCARVWGYCSGGSCYVDAFDIWGQGTMVTVSS
VL: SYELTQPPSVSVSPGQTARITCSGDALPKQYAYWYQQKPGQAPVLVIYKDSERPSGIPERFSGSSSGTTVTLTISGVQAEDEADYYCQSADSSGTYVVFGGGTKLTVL
notes: expressed as IgG
Take B8: in [8], the binding result is given as “no binding”.

B9: CV2-72 (antibody, V domains shown)
VH: EVQLVESGGGLVQPGGSLRLSCAASGFTVSTNYMSWVRQAPGKGLEWVSVIYSGGSTYYVDSVKGRFTISRDNSKNTLYLQMNSLRAEDTAVYYCASTNSGSYSHVFDIWGQGTMVTVSS
VL: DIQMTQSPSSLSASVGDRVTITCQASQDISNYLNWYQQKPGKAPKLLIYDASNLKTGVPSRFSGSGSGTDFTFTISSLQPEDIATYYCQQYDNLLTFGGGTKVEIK
B9: in [9], the binding result is “no binding”.

B10: CV2-74 (antibody, V domains shown)
VH: EVQLVQSGAEVKKPGESLRISCKGSGYSFTSYWISWVRQMPGKGLEWMGRIDPSDSYTNYSPSFQGHVTISADKSISTASLQWSSLKASDTAMYYCARQKRDGTTWAFDYWGQGTLVTASS
VL: not shown
In the case of B10, the binding result in assay [10] is on record as “no binding”.

B11: CV18 (antibody, V domains shown)
VH: QVQLVQSGAEVKKPGASVKVSCKVSGYTLTELSMHWVRQAPGKGLEWMGGFDPEDGETIYAQKFQGRVTMTEDTSTDTAYMELSSLRSEDTAVYYCATTSPIVGAITWFDPWGQGTLVTVSS
VL: QSVLTQPPSVSAAPGQKVTISCSGSSSNIGNNYVSWYQQLPGTAPKLLIYDNNKRPSGIPDRFSGSKSGTSATLGITGLQTGDEADYYCGTWDSSLSAGPVFGGGTKLTVL
notes: expressed as IgG
Consider B11, for which the binding result in assay [11] was “no binding”.

B12: CV2-64 (antibody, V domains shown)
VH: QLQLQESGPGLVKPSETLSLTCTVSGGSISSSSYYWGWIRQPPGKGLEWIGSIYYSGSTYYNPSLKSRVTISVDTSKNQFSLKLSSVTAADTAVYYCARLSGIFGVVIIPGFFDYWGQGTLVTVSS
VL: not shown
Take B12: in [12], the binding result is given as “no binding”.

B13: CV21 (antibody, V domains shown)
VH: not shown
VL: EIVLTQSPATLSLSPGERATLSCRASQSVSSYLAWYQQKPGQAPRLLIYDASNRATGIPARFSGSGSGTDFTLTISSLEPEDFAVYYCQQRSNWPLTFGGGTKVEIK
notes: expressed as IgG
On to B13, for which, in assay [13], the binding result is recorded as “no binding”.

B14: CV2-60 (antibody, V domains shown)
VH: QVQLVQSGAEVKKPGASVKVSCKASGYNFISYGISWVRQAPGQGLEWMGWISAYNGNTNYAQKLQGRVTMTTDTSTSTAYMELRSLRSDDTAVYYCARVRIFGVVIIVDTAMVLDYWGQGTLVTVSS
VL: QSVLTQPPSVSAAPGQKVTISCSGSSSNIGNNYVSWYQQLPGTAPKLLIYENNKRPSGIPDRFSGSKSGTSATLGITGLQTGDEADYYCGTWDSSLSAGVFGGGTKLTVL
For B14, in assay [14], the binding result is listed as “no binding”.

B15: CV2-73 (antibody, V domains shown)
VH: QVQLQESGPGLVKPSETLSLTCTVSGGSVSSGSYYWSWIRQPPGKGLEWIGYIYYSGSTNYKYSLKSRVTISVDTSKNQFSLKLSSVTAADTAVYYCAREKGGTEWEFNDAFDIWGQGTMVTVSS
VL: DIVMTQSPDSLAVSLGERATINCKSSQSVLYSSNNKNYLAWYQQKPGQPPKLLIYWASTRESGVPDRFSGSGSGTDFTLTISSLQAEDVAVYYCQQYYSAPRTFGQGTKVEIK
Consider B15, for which, in assay [15], the binding result was “no binding”.

B16: CV25 (antibody, V domains shown)
VH: QVQLQESGPGLVKPSQTLSLTCTVSGGSISSGDYYWSWIRQPPGKGLEWIGYIYYSGSTYYNPSLKSRVTISVDTSKNQFSLKLSSVTAADTAVYYCARDHHYDFWSGYSSYYYYGMDVWGQGTTVTVSS
VL: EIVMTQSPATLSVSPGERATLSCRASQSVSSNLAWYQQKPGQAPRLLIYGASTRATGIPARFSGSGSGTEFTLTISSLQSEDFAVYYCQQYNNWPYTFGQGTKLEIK
As to B16, the binding result in [16] was “no binding”.

B17: CV2-70 (antibody, V domains shown)
VH: QVQLVQSGAEVKKPGSSVKVSCKASGGTFSSYAITWVRQAPGQGLEWMGGIIPIFGTANYAQKFQGRLTITADDSTSTAYMELSSLKSEDTAVYYCARFRAYDSSGYGPDYWGQGTLVTVSS
VL: EIVLTQSPATLSLSPGERATLSCRASQSVSSYLAWYQQKPGQAPRLLIYDASNRATGIPARFSGSGSGTDFTLTISSLEPEDFAVYYCQQRSNWPPSITFGQGTRLEIK
B17: the binding result in [17] is “no binding”.

B18: CV2-63 (antibody, V domains shown)
VH: QVQLVESGGGVVQPGRSLRLSCAASGFTFSSYAMHWVRQAPGKGLEWVAVISYDGDNKYYADSVKGRFTISRDNSKNTLYLQMNSLRAEDTAVYYCARDPTAVTGPFDYWGQGTLVTVSS
VL: SYELTQPLSVSVALGQTARITCGGNNIGSKNVHWYQQKPGQAPVLVIYRDSNRPSGIPERFSGSNSGNTATLTISRAQAGDEADYFCQVWDSSTVVFGGGTKLTVL
With B18, in assay [18], the binding result is reported as “no binding”.
